The values that follow come from PMC4956616, “Structural Insights into Arl1-Mediated Targeting of the Arf-GEF BIG1 to the trans-Golgi” (Cell Reports, 2016).

The chains are these.
T1: His6-tagged BIG2 N-terminal fragment (1–216) (human, UniProt Q9Y6D5 1-216)
T1 construct: human BIG2, UniProt Q9Y6D5, N-terminal fragment, residues 1-216; also called related region from BIG2; source: E. coli BL21-CodonPlus (DE3)-RIPL, purified (Ni-NTA); not shown: His6, N-terminal, kept
T1 sequence (looked up): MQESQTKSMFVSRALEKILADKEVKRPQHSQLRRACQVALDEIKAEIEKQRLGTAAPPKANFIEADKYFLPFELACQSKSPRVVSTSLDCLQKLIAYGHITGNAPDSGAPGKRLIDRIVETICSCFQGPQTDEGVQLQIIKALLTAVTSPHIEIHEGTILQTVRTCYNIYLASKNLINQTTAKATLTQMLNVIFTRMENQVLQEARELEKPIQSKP

T2: His6-DCB^BIG1 (human BIG1 residues 1–228) (human, UniProt Q9Y6D6 1-228)
T2 construct: also called DCB domain; source: E. coli BL21-CodonPlus (DE3)-RIPL, purified (Ni-NTA); not shown: His6, N-terminal, kept
T2 sequence (looked up): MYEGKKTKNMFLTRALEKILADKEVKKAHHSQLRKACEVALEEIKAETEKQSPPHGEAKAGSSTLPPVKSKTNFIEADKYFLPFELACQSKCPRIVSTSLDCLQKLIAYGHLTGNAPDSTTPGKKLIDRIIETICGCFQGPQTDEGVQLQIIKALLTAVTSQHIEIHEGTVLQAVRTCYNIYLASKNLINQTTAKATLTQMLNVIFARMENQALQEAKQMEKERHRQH

B1: His6-DCB^Δ51–71 (human BIG1 residues 1–228 with a deletion of residues 51–71 inclusive) (domain or fragment, UniProt Q9Y6D6 1-228, looked up)
chain: MYEGKKTKNMFLTRALEKILADKEVKKAHHSQLRKACEVALEEIKAETEKTNFIEADKYFLPFELACQSKCPRIVSTSLDCLQKLIAYGHLTGNAPDSTTPGKKLIDRIIETICGCFQGPQTDEGVQLQIIKALLTAVTSQHIEIHEGTVLQAVRTCYNIYLASKNLINQTTAKATLTQMLNVIFARMENQALQEAKQMEKERHRQH
notes: also called DCB^((Δ51–71) BIG1); source: E. coli BL21-(DE3)-RIPL, co-expressed with GST-Arl1^Q71L, purified (glutathione-Sepharose, TEV release, Superdex 75)
B2: MBP-tagged DCB^BIG1 (wild type) (domain or fragment, human, UniProt Q9Y6D6 1-228, looked up)
chain: T2 sequence (looked up)
notes: Expected monomer 69 kDa, measured average 129 kDa; also called MBP-DCB^BIG1; not shown: MBP, N-terminal, kept
B3: GST-Arl1^ΔN14 (human Arl1 residues 15–181), loaded with GMP-PNP or GDP (domain or fragment, UniProt P40616 15-181, looked up)
chain: TREMRILILGLDGAGKTTILYRLQVGEVVTTIPTIGFNVETVTYKNLKFQVWDLGGQTSIRPYWRCYYSNTDAVIYVVDSCDRDRIGISKSELVAMLEEEELRKAILVVFANKQDMEQAMTSSEMANSLGLPALKDRKWQIFKTSATKGTGLDEAMEWLVETLKSRQ
notes: human Arl1, UniProt P40616, residues 15-181 (lacks the N-terminal amphipathic helix, residues 1-14); it was loaded with nucleotide (GMP-PNP or GDP) in vitro; also called Arl1^GTP; GST-Arl1^GMP-PNP; source: E. coli BL21-CodonPlus (DE3)-RIPL, purified (glutathione-Sepharose); not shown: GST, N-terminal, kept

Data set [1] concerns the molecule itself. As to the kind of experiment: crystal structure; Arl1^Q71L-GTP/Mg2+/DCB^Δ51–71, space group C2, one complex per asymmetric unit, 2.3 Å, molecular replacement.
Data set [2] deals with the molecule itself. Nature of the data set: SEC-MALS; MBP-tagged DCB^BIG1 proteins on Superdex-75 HR10/300, 0.5 ml/min, PBS pH 7.5, 150 mM NaCl, 5 mM MgCl2, 0.001% Triton X-100; dimer to monomers.
Data set [3] addresses B1. Nature of the data set: pull-down; 2 nM GST-Arl1 loaded with GMP-PNP or GDP mixed with 2 nM His6-tagged protein in 500 μl buffer C (20 mM Tris-HCl, 110 mM KCl, 1 mM DTT, 0.1% Triton X-100) plus 5 mM MgCl2, 4°C 30 min, captured on glutathione-Sepharose; SDS-PAGE, Coomassie. Particulars: both partners purified.
Data set [4] has as its target T1, His6-tagged BIG2 N-terminal fragment …. Described as above. Particulars: both partners purified.
Data set [5] addresses T2, His6-DCB^BIG1 (human BIG1 residues …). The data set is described as above. Conditions: both partners purified.

As to B1, the binding result in data set [1] is listed as “binds”.
The term stoichiometry N denotes the number of molecules, sites or subunits per partner or assembly. With B2, in data set [2], the “stoichiometry N” value amounted to 2.
As to B3, the binding result in data set [3], in data set [4] and in data set [5] was “binds” in each case.
